The results in this text go back to the DeepSol protein solubility set.

A short description of this data set: soluble on expression in E. coli; label from the status in PepcDB or PDB records.
On to “MHLYNLTLQGQSAINQAIQGNFSGTPKAQEIVVGRGSALELLTLDTVTGKIKVMCHQDIFGIVRSLLAFRLTAGTRDFIAVGSDSGRIVILQYNAEKTCFERLHQETFGKTGCRRIVPGHFLVGDPRGRALMIGAVERQKLVYIMNRDSEAHLTISSPLEAHKHHTLCYAMVGIDVGFENPTFACLEFDYEDADNDPTGEAAKRTQQTLTFYELDLGLNHVVRKYAEPLNDPGNLLIAVPGGNDGPSGVIVCCENYLVYKNLGDQPDIRCPIPRRRNELDDADRTMLIIATATHKTKNMYFFLVQAENGDIFKVTLETDEDLVSEMKLKYFDTVPPANALCILKSGFLFVAAEFGNHELYQIASLGEGDDDEFSSAMGFGENDAAFFEPHELKSLIPIDSMDSLSPLTDAVIGDIAREDAAQIYSLVGRGARSSLKVLRNGLEISEMAVSDLPGNPNAVWTVKKNIEDQYDSYIVVSFVNATLALTIGDTVEEASDSGFLPTTPTIGCAMIGDDSLVQIYSEGIRHIRADKRINEWKAPPRRQIVKCAVNRRQVAVALTGGELVYFELDLNGTLNEFTERKLFNADIACMTFSEISEGELNSRFLALGTVDNAVRIISLDPNDMLMPLSTQSLPCPPESILLIDTPNEDGKGVAAVHLNIGLQNGCLFRNTVDNVTGAIMDTRTRYLGTRPVKLFKVQCQGRSAILCTSSRSWLLYHFQRRFHLTPLSYANLEYAASFCSNQCSEGIVAISASTLRIIAAEKLGVAFNVQSFEHKMTPRRVAVHPSMPCLIVIETDHASYTEVTKNIKRNQMAADVEAMASDETEAQLAQEIATNLRERRLDERVYGAPRAARGKWASAISLISATSGDKLSYFELPQDENAKCVALVQFSKHPNEAMVLVGCGVNEVLNVHDIDPNDTSIRPTRGCVYTFHLSANGDRFDFLHRTETPLPVGAIHDFRGMALVGFGRFLRMYDIGQKKLLAKCENKNFPVSIVNIQSTGQRIIVSDSQESVHFLRYRKGDNQLVVFADDTTPRYVTCVCVLDYHTVAVADKFGNLAVVRLPERVNEDVQDDPTVSKSVWDRGWLNGASQKVELVSNFFIGDTITSLQKTSLMPGANEALVYTTIGGAIGCLVSFMSKDEVDFFTNLEMHVRSEYPPLCGRDHLAYRSYYAPCKSVIDGDICEQFSLMDTQKQKDVAEELGKTVSEISKKLEDIRTRYAF”, for which the “soluble on expression in E. coli” value was “not soluble”.

“MAGGFGVGKTTFVGAVSEIAPLSTEELLTTVGAATDNLDGIENKVETTVAMDFGRITLDPEHVLYLFGTPGQQRFWFMWDELSEGALGAVILADTRRLEDCFAAVDFFEQRGLAFIVAINDFDGGYRYDPAEVRAAIDLDPHIPVVRCDARISSSGVQTLLTLVRHLLAHAPATAPSHGAHTLEHHHHHH”: the “soluble on expression in E. coli” value is recorded as “not soluble”.

Turning to “MSETVSVESSVDSNINQDVNIRATYLGAHELKLAASLLYQAYHDDPVFLDIFKSDKEDYEQRLRGAIREELNAFWQAKQPMIGLYLGEAMVGVACINSPDETLASDRFWHWRLKMLLNAGYFSTKQMMQKEHTVLAAVPLKIFHFLSFIAVHPLHQQHGFGHYLMAAVNTVLDEHPDSEGVAVYATSGKFKEFFKQVDYHTVKEVTVGNVCGSVMVHYRDKEE”, the “soluble on expression in E. coli” value is listed as “soluble”.

“MGSSHHHHHHGKTIFVIVPTNEEQVAFLEALAKQDELNFDWQNPPTEPGQPVVILIPSDMVEWFLEMLKAKGIPFTVYVEEGGSENLYFQGGGGGGYCAPTGRGADPKFYTPDAARKRDEQDKSYPVPKKLLKVRFLSDVGNTMPIAFVPLQREVEVLVGEPALAFYSAYNRSNRTLLGVSSYTIAPPEVTNYLNKIQCFCFEEQRFKPHELVEMPVFFYIDRDFLNDSMVNWLDEVIVNYTFFNLEKTKDYIFRPNAR”: the “soluble on expression in E. coli” value is “not soluble”.

Take “MGSDKIHHHHHHMTTQAKQPSRFDRNPLASENERLILDIVRRHGPIARSVITTHTNLTQQSVHRLIEGLIERGLLRTGAPLKGARGQPSPTIELAVESVASLGISINTDSAIICLADFSCGVIAQKKLELLPLSREATLVSLSRTLDEMLEAHNLPRDRLLGLGFAMSGFSVADDRIFNAPEPLQDWSLMDLRPILEQTFQLPVWQENNATTGAIGESLQGVGRWCQTFAYLSFNYGFGGGLILNGQPFYGFHGNAAELSGIYDPTEAPRRPALQYLLRSLQDHGIEIDSVDTLYRTFDPGWPGVEAWLEATMPQVERLVAVLIAVIDPQAIVFGGQLPPALGAMMIERCPMPSQRVHRYGVGPKEARLVLSEVKGDAAVIGAALLPLKMRYFI”: the “soluble on expression in E. coli” value was “not soluble”.

In the case of “MGSDKIHHHHHHGCKEKDMSMKMNEPHNIKGVISYKRSFGDLNDTHLSVAKKIGIRPLASRSEAEGLGGKLVQIKPCERYAMDSLTHSIPFLIPQASALLDTIGANFLDSLSCKGLNPNQIIVTSVLRTADDVKRLRRRNGNASANSAHAFGTTFDVSYRRFCKVEDPDGRPMQDVSPDTLKLVLAEVLRDLRKSDKCYIKYELKQGCFHITAR”, the “soluble on expression in E. coli” value is “not soluble”.

For the sequence “MGSDKIHHHHHHLRVGEVAPTAIDLHIHTIESDGSLSVAGVIQEAAERGVRVLALTDHETTNGVPEAMELGQKHNLNIIPGVELITAFKGKEVHLLGYFSYAAMMHSDLQSRLKELRQQRTYLAFEMVKRLQKDGFTLKWAEVEKIANPEGAVSKGHIMRALHEHENGTIQWPVIAKLFQPYGIAYLPFLEHPFEEAVDLIYTCGGVPVLAHPGLLRDDRMVGELLSYLPMGLEVYYGYWEQREALIQNYKTIAQDKAILTTGGSDFHGLFGPVKLGEIEVPEQCSRELQTFLKLDF”, the “soluble on expression in E. coli” value is recorded as “not soluble”.

Consider “MSRPRAKLTGNFPGCPVESALSFLDGKWKGVILYHLINEGTLRFNELRRHIPSVTQRMLTKQLRELEEAGLISRTVFPVVPPRVDYALTPLGETMRPVISALKSWGDAHVVCKNGEKYTRAPTVAEKAA”, for which the “soluble on expression in E. coli” value is on record as “not soluble”.

Turning to “MSLKITQIQAQNKNKNRRNVFVDGSYEFSCDMEIILKYKLKEGLEIDRTKLLQVIDQSKEEFAFRLALNYLSFKSRTSFEIYTYLLKKEYEEKIIEKVIEKLKYYRYVDDNQYVLNYIKTALAEGKKGKDRVQSDLINKKIPQDMIESHMHLFSCETNLEIAKELSNKYFKQNAHLPFNQFKNKLSQFLMRKGFNWEIINTCLNILEQDSEEGHHHHHH”, the “soluble on expression in E. coli” value was “soluble”.

With “MTPFAEAVRQLRERKGVTQKEMAAAIGVSPAYLSALEHGKRGKPSFDLLQRIAGYFNIIWDEAEELFFLAGSSDPKVVIDTVGLPPQYTAFANRLARDIRKLPPSVVEELSAVLQKSRSCD”, the “soluble on expression in E. coli” value is reported as “not soluble”.

For the sequence “MRIFEPGLCSVTFRSLSPQAVIDLAVANGIRAIEWGADIHVPAGDLENARDVAERTAKAGLAVSSYGSYIFAPDFTRKDLTAVLETAKALGTGHIRIWPGQRKRPSTDYSPAERRTATEALAEIARQAQDYDMTIGLEYHPNSLTDTLPSALQLAQDLALPNLFFYWQPAPGLPLEKALAEISKIGSRVCHLHIFAWLADTNRLPLADRVDYWQSCVEALPESEWTKPAYAMLEFVKGDDVGQFAEDAVTLSEILAGHRVADLEHHHHHH”, the “soluble on expression in E. coli” value is recorded as “soluble”.

For “MSLKFSAKLVDDPSIEKSSSAIRLMCLSDTHGVHNNINKNTIFPADILLFAGDMTLFGNPEHAESFKNFITSLPVQHKVIISGNLDLPFDLKNYSHFTEWFSKFSYKNGPESIKTTFTEDQDIIYLEHQAVTIENVKIFGSPFTPAFGDFGFPTTKDTASKLWEQVPEDTDVILCHGPPHNICDMTSTGFHAGCPELRKSVERVKPAAVVFGHIHEAHGNTMIGNTLCCNVAIVNSNRDVAYGPTYIDLIQEGHHHHHH”, the “soluble on expression in E. coli” value is given as “soluble”.

On to “HHHHHHMVRAIDEDCSQYEPIPGSQKAALGYNILTQEDAQSVYDASYYGGQCETVYNGEWRELRYDSTCERLYYGDDEKYFRKPYNFLKYHFEALADTGISSEFYDNANDLLSKVKKDKSDSFGVTIGIGPAGSPLLVGVGVSHSQDTSFLNELNKYNEKKFIFTRIFTKVQTAHFKMRKDDIMLDEGMLQSLMELPDQYNYGMYAKFINDYGTHYITSGSMGGIYEYILVIDKAKMESLGITSRDITTCFGGSLGIQYEDKINVGGGLSGDHCKKFGGGKTERARKAMAVEDIISRVRGGSSGWSGGLAQNRSTITYRSWGRSLKYNPVVIDFEMQPIHEVLRHTSLGPLEAKRQNLRRALDQYLM”, for which the “soluble on expression in E. coli” value is on record as “soluble”.

Consider “MSLLSGGLSLNDKSWQALVFDYTNDGMGWPIGALASAEQILLAMSAQLVDTDFELSLLLPEGEGEEALFELADAVAEWINHFISGLGLSGANLKHASVEAKEALEDLEEMSKLGIDEEDDLAEQAELLEQVIEHIKVCVLVLHAEFGVKPEQDTKPTVHEGGSHHHHHH”, for which the “soluble on expression in E. coli” value is “soluble”.
